US20180236028

Tested on: Reelin of primary cortical neurons (endogenous, cellular and supernatant fractions)

MMP-9 (active; Calbiochem, PF140)
Reelin processing in primary neurons, Western blot: application of MMP-9 to primary neurons led to a specific accumulation of the 180 kDa fragment in cells and MMP-9 inhibition for 24 hours led to a dramatic increase in full-length cellular Reelin and decrease in cellular 180 kDa Reelin
